Reference: publication PMC8149476 (Cell Reports Medicine, 2021)

Legend:
[1] = molecular target: human NOTCH3 NRR_AviHis recombinant protein (Homo sapiens, UniProt Q9UM47); assay: SPR
[2] = molecular target: human NOTCH3 receptor expressed on U2OS cells (U2OS-hN3) (human, UniProt Q9UM47); assay: ELISA
[3] = molecular target: mouse NOTCH3 (mN3) expressed on U2OS cells (U2OS-mN3) (mouse, UniProt Q61982); assay: ELISA
[4] = molecular target: human NOTCH1 receptor expressed on U2OS cells (U2OS-hN1) (Homo sapiens, UniProt P46531); assay: ELISA
[5] = molecular target: mouse NOTCH1 receptor expressed on U2OS cells (U2OS-mN1) (Mus musculus, UniProt Q01705); assay: ELISA
[6] = molecular target: NOTCH3 endogenous on MDA-MB-468 cells (human (endogenous in MDA-MB-468), UniProt Q9UM47); assay: immunostaining of cells or tissue
Chain of NOTCH3 endogenous on MDA-MB-468 cells (Q9UM47 40-2321): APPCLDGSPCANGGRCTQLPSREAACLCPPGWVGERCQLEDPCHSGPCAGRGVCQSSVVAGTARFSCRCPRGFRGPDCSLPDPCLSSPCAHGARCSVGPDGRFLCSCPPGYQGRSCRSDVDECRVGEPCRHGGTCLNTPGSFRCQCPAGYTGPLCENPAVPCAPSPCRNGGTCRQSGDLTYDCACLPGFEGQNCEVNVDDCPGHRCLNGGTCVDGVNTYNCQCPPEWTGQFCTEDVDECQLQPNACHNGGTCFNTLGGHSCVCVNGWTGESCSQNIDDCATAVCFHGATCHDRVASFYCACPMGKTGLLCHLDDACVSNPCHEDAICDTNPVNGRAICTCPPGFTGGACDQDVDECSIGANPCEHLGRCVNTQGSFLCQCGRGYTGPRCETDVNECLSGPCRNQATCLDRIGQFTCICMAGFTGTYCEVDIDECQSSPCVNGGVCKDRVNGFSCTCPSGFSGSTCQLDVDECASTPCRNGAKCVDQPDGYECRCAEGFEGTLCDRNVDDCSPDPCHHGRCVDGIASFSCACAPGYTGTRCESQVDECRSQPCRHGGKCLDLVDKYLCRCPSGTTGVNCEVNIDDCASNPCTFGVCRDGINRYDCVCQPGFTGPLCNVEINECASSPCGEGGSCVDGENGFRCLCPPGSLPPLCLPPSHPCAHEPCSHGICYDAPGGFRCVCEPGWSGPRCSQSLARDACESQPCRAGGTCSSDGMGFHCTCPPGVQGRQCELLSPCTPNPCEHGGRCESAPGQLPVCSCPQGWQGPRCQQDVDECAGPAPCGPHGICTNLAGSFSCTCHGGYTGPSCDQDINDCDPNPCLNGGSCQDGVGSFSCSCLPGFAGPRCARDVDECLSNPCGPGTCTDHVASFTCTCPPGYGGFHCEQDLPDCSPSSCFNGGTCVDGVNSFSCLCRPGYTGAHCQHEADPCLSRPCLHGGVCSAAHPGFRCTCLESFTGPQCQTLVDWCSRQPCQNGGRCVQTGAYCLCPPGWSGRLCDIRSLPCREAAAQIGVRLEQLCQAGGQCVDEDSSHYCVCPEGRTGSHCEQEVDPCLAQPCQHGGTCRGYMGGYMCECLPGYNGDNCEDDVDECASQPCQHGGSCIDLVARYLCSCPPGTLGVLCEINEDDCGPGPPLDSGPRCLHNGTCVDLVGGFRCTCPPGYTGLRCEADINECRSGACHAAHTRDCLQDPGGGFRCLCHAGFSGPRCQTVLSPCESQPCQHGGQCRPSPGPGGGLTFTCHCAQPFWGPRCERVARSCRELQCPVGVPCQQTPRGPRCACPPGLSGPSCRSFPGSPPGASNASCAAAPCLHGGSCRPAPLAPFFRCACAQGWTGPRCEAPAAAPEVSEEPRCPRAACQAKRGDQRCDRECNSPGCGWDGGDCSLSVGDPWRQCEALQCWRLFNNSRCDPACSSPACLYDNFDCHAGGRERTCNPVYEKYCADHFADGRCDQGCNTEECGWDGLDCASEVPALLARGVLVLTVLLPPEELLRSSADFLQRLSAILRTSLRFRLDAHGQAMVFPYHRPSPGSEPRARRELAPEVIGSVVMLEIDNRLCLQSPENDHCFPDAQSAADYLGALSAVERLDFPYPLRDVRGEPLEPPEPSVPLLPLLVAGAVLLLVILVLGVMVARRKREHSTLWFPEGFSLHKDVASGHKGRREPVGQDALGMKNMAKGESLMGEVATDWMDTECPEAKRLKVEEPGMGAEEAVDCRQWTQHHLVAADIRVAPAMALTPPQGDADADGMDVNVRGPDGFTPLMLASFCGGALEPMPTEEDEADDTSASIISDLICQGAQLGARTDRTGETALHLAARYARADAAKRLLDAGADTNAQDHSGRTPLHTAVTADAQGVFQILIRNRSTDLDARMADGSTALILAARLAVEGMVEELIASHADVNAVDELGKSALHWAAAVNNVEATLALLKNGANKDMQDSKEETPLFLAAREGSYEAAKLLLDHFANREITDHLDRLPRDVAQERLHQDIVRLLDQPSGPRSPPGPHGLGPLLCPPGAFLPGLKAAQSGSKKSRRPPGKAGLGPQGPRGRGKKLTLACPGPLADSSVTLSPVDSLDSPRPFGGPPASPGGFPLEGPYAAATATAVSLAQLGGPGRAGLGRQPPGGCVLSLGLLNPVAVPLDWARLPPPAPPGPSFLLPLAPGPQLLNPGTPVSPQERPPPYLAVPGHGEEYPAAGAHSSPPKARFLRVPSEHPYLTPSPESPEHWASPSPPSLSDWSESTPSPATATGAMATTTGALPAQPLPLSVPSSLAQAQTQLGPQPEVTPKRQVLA

Chain of human NOTCH3 receptor expressed on U2OS cells (U2OS-hN3) (Q9UM47 40-2321): as above
Chain of mouse NOTCH3 (mN3) expressed on U2OS cells (U2OS-mN3) (Q61982 40-2318): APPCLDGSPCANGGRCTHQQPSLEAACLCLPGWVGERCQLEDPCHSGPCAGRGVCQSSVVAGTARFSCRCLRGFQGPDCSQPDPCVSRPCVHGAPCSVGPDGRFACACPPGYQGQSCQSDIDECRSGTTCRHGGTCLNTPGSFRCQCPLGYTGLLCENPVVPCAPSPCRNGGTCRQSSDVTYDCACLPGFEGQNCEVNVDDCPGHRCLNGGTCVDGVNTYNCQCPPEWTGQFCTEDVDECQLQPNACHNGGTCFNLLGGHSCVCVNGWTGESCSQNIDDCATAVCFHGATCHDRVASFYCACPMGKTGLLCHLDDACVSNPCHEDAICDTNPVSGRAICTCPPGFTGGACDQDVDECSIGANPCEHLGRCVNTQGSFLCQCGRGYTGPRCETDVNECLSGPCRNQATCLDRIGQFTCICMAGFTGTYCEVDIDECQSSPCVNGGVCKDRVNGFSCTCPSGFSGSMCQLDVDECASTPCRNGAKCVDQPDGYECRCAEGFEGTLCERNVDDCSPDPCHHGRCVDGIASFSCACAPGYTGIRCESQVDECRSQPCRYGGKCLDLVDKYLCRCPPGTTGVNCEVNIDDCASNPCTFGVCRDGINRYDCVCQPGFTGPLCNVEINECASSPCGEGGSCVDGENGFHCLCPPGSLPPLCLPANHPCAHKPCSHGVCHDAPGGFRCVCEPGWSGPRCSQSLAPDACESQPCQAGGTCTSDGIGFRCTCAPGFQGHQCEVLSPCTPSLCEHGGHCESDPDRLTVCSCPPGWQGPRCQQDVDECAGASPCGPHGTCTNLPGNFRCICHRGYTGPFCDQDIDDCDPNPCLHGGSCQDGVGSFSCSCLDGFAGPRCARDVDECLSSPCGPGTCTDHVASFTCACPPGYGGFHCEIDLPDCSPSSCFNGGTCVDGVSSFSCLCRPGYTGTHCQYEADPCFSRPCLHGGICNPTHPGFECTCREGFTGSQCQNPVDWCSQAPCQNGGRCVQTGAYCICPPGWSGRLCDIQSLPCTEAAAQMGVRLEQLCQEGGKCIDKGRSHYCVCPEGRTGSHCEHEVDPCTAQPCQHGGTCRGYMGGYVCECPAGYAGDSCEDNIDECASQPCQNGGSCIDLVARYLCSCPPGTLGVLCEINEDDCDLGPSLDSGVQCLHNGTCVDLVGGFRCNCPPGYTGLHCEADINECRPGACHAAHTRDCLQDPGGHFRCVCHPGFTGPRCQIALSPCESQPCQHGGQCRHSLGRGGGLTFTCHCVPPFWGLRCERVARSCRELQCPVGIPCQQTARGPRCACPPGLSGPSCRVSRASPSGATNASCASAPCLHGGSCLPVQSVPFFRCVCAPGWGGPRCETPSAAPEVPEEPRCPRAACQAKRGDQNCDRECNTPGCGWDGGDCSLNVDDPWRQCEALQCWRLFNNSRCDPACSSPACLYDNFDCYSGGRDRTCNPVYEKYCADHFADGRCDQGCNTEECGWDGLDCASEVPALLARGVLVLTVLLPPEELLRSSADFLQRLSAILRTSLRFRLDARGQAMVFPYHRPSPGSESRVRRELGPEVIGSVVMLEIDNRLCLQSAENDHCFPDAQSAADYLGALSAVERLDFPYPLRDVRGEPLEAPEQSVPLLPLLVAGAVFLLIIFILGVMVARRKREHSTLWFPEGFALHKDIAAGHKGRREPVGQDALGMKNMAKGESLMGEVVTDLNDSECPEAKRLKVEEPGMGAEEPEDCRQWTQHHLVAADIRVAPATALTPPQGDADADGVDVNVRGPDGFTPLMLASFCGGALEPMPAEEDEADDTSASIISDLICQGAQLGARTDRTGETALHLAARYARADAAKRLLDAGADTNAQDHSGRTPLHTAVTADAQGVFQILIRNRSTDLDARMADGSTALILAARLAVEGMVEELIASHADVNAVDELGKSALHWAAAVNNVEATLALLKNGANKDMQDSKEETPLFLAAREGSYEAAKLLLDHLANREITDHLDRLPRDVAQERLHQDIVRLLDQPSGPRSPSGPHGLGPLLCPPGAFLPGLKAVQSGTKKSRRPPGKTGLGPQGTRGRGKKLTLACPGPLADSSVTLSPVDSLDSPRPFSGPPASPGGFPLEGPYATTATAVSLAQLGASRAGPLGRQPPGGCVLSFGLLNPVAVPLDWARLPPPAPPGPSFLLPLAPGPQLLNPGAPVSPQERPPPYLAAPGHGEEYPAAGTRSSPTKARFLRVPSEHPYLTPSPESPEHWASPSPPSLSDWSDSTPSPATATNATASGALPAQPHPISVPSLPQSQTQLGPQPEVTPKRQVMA

B1: anti-NOTCH3 inhibitory (anti-N3(i)) mAb clone 75 (antibody, V domains shown)
VH: EVQLVESGGGLVQPGGSLRLSCAASGYAFTDYWMTWVRQAPGKGLEWVAEISPNSGGTNFNEKFKGRFTISVDNAKNSLYLQMNSLRAEDTAVYYCARGEIRYNWFAYWGQGTLVTVSS
VL: DIQMTQSPSSLSASVGDRVTITCKASQNVGNNIAWYQQKPGKAPKLLIYYASNRYTGVPSRFSGSGYGTDFTLTISSLQPEDFATYYCQRLYNSPFTFGGGTKVEIK
B1: binds [1]; binds [2]; no binding [3]. B1: no binding [4]; no binding [5]; binds [6].

B2: Anti-N3(i)-vc0101 ADC (antibody, V domains shown)
VH: EVQLVESGGGLVQPGGSLRLSCAASGYAFTDYWMTWVRQAPGKGLEWVAEISPNSGGTNFNEKFKGRFTISVDNAKNSLYLQMNSLRAEDTAVYYCARGEIRYNWFAYWGQGTLVTVSS
VL: DIQMTQSPSSLSASVGDRVTITCKASQNVGNNIAWYQQKPGKAPKLLIYYASNRYTGVPSRFSGSGYGTDFTLTISSLQPEDFATYYCQRLYNSPFTFGGGTKVEIK
B2: binds [2].
